Results reported in article PMC6769930, “Endoglin Protein Interactome Profiling Identifies TRIM21 and Galectin-3 as New Binding Partners” (Cells, 2019).

T1: recombinant human soluble endoglin (sEng; Glu26-Gly586) (human, UniProt P17813 26-586)
T1 construct: human endoglin (CD105), extracellular domain, Glu26-Gly586; The same bought protein was the probe of the array and the analyte of the BLI; also called recombinant human endoglin/CD105 protein; source: bought: R&D Systems (1097-EN), purified recombinant
T1 sequence (looked up): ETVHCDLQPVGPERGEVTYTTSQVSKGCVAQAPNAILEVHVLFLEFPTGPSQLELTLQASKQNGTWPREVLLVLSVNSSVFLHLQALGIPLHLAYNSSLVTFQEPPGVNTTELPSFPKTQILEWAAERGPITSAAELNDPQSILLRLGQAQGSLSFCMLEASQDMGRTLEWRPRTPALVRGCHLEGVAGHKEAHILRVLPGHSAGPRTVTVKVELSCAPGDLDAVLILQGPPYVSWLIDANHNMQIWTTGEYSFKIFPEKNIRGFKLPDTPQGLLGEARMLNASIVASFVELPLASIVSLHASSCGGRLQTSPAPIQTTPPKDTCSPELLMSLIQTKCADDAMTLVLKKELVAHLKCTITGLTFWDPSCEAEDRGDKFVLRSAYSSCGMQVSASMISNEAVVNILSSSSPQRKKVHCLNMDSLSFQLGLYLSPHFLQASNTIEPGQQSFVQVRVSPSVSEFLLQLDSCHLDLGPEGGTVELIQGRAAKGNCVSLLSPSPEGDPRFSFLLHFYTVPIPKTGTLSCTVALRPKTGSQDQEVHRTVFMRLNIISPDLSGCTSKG

B1: Coiled-coil domain containing 55 (CCDC55), transcript variant 1 (natural protein, human, UniProt Q9H0G5 1-558, looked up)
chain: MAIPGRQYGLILPKKTQQLHPVLQKPSVFGNDSDDDDETSVSESLQREAAKKQAMKQTKLEIQKALAEDATVYEYDSIYDEMQKKKEENNPKLLLGKDRKPKYIHNLLKAVEIRKKEQEKRMEKKIQREREMEKGEFDDKEAFVTSAYKKKLQERAEEEEREKRAAALEACLDVTKQKDLSGFYRHLLNQAVGEEEVPKCSFREARSGIKEEKSRGFSNEVSSKNRIPQEKCILQTDVKVEENPDADSDFDAKSSADDEIEETRVNCRREKVIETPENDFKHHRSQNHSRSPSEERGHSTRHHTKGSRTSRGHEKREDQHQQKQSRDQENHYTDRDYRKERDSHRHREASHRDSHWKRHEQEDKPRARDQRERSDRVWKREKDREKYSQREQERDRQQNDQNRPSEKGEKEEKSKAKEEHMKVRKERYENNDKYRDREKREVGVQSSERNQDRKESSPNSRAKDKFLDQERSNKMRNMAKDKERNQEKPSNSESSLGAKHRLTEEGQEKGKEQERPPEAVSKFAKRNNEETVMSARDRYLARQMARVNAKTYIEKEDD
notes: human CCDC55, transcript variant 1; source: bought: ProtoArray human protein Microarray v5.0 (Life Technologies), individually purified and arrayed
B2: Potassium voltage-gated channel, shaker-related subfamily, beta member 1 (KCNAB1), transcript variant 1 (natural protein, human, UniProt Q14722-1 1-419, looked up)
chain: MLAARTGAAGSQISEENTKLRRQSGFSVAGKDKSPKKASENAKDSSLSPSGESQLRARQLALLREVEMNWYLKLCDLSSEHTTVCTTGMPHRNLGKSGLRVSCLGLGTWVTFGGQISDEVAERLMTIAYESGVNLFDTAEVYAAGKAEVILGSIIKKKGWRRSSLVITTKLYWGGKAETERGLSRKHIIEGLKGSLQRLQLEYVDVVFANRPDSNTPMEEIVRAMTHVINQGMAMYWGTSRWSAMEIMEAYSVARQFNMIPPVCEQAEYHLFQREKVEVQLPELYHKIGVGAMTWSPLACGIISGKYGNGVPESSRASLKCYQWLKERIVSEEGRKQQNKLKDLSPIAERLGCTLPQLAVAWCLRNEGVSSVLLGSSTPEQLIENLGAIQVLPKMTSHVVNEIDNILRNKPYSKKDYRS
notes: human KCNAB1, transcript variant 1; source: bought: ProtoArray human protein Microarray v5.0 (Life Technologies), individually purified and arrayed
B3: Cortactin (CTTN), transcript variant 2 (natural protein, human, UniProt Q14247-3 1-513, looked up)
chain: MWKASAGHAVSIAQDDAGADDWETDPDFVNDVSEKEQRWGAKTVQGSGHQEHINIHKLRENVFQEHQTLKEKELETGPKASHGYGGKFGVEQDRMDKSAVGHEYQSKLSKHCSQVDSVRGFGGKFGVQMDRVDQSAVGFEYQGKTEKHASQKDYSSGFGGKYGVQADRVDKSAVGFDYQGKTEKHESQRDYSKGFGGKYGIDKDKVDKSAVGFEYQGKTEKHESQKDYVKGFGGKFGVQTDRQDKCALGWDHQEKLQLHESQKDYSKGFGGKYGVQKDRMDKNASTFEDVTQVSSAYQKTVPVEAVTSKTSNIRANFENLAKEKEQEDRRKAEAERAQRMAKERQEQEEARRKLEEQARAKTQTPPVSPAPQPTEERLPSSPVYEDAASFKAELSYRGPVSGTEPEPVYSMEAADYREASSQQGLAYATEAVYESAEAPGHYPAEDSTYDEYENDLGITAVALYDYQAAGDDEISFDPDDIITNIEMIDDGWWRGVCKGRYGLFPANYVELRQ
notes: source: bought: ProtoArray human protein Microarray v5.0 (Life Technologies), individually purified and arrayed
B4: Origin recognition complex, subunit 6 like (yeast) (ORC6L) (natural protein, human, UniProt Q9Y5N6 1-252, looked up)
chain: MGSELIGRLAPRLGLAEPDMLRKAEEYLRLSRVKCVGLSARTTETSSAVMCLDLAASWMKCPLDRAYLIKLSGLNKETYQSCLKSFECLLGLNSNIGIRDLAVQFSCIEAVNMASKILKSYESSLPQTQQVDLDLSRPLFTSAALLSACKILKLKVDKNKMVATSGVKKAIFDRLCKQLEKIGQQVDREPGDVATPPRKRKKIVVEAPAKEMEKVEEMPHKPQKDEDLTQDYEEWKRKILENAASAQKATAE
notes: human origin recognition complex subunit 6; source: bought: ProtoArray human protein Microarray v5.0 (Life Technologies), individually purified and arrayed
B5: Spliceosome-associated protein CWC15 homolog (HSPC148) (natural protein, human, UniProt Q9P013 1-229, looked up)
chain: MTTAARPTFEPARGGRGKGEGDLSQLSKQYSSRDLPSHTKIKYRQTTQDAPEEVRNRDFRRELEERERAAAREKNRDRPTREHTTSSSVSKKPRLDQIPAANLDADDPLTDEEDEDFEEESDDDDTAALLAELEKIKKERAEEQARKEQEQKAEEERIRMENILSGNPLLNLTGPSQPQANFKVKRRWDDDVVFKNCAKGVDDQKKDKRFVNDTLRSEFHKKFMEKYIK
notes: human spliceosome-associated protein CWC15 homolog; source: bought: ProtoArray human protein Microarray v5.0 (Life Technologies), individually purified and arrayed
B6: HIRA interacting protein 3 (HIRIP3) (natural protein, human, UniProt Q9BW71-1 1-556, looked up)
chain: MAREKEMQEFTRSFFRGRPDLSTLTHSIVRRRYLAHSGRSHLEPEEKQALKRLVEEELLKMQVDEAASREDKLDLTKKGKRPPTPCSDPERKRFRFNSESESGSEASSPDYFGPPAKNGVAAEVSPAKEENPRRASKAVEESSDEERQRDLPAQRGEESSEEEEKGYKGKTRKKPVVKKQAPGKASVSRKQAREESEESEAEPVQRTAKKVEGNKGTKSLKESEQESEEEILAQKKEQREEEVEEEEKEEDEEKGDWKPRTRSNGRRKSAREERSCKQKSQAKRLLGDSDSEEEQKEAASSGDDSGRDREPPVQRKSEDRTQLKGGKRLSGSSEDEEDSGKGEPTAKGSRKMARLGSTSGEESDLEREVSDSEAGGGPQGERKNRSSKKSSRKGRTRSSSSSSDGSPEAKGGKAGSGRRGEDHPAVMRLKRYIRACGAHRNYKKLLGSCCSHKERLSILRAELEALGMKGTPSLGKCRALKEQREEAAEVASLDVANIISGSGRPRRRTAWNPLGEAAPPGELYRRTLDSDEERPRPAPPDWSHMRGIISSDGESN
notes: as for B3
B7: RAD51 associated protein 1 (RAD51AP1) (natural protein, human, UniProt Q96B01-2 1-335, looked up)
chain: MVRPVRHKKPVNYSQFDHSDSDDDFVSATVPLNKKSRTAPKELKQDKPKPNLNNLRKEEIPVQEKTPKKRMALDDKLYQRDLEVALALSVKELPTVTTNVQNSQDKSIEKHGSSKIETMNKSPHISNCSVASDYLDLDKITVEDDVGGVQGKRKAASKAAAQQRKILLEGSDGDSANDTEPDFAPGEDSEDDSDFCESEDNDEDFSMRKSKVKEIKKKEVKVKSPVEKKEKKSKSKCNALVTSVDSAPAAVKSESQSLPKKVSLSSDTTRKPLEIRSPSAESKKPKWVPPAASGGSRSSSSPLVVVSVKSPNQSLRLGLSRLARVKPLHPNATST
notes: human RAD51 associated protein 1; source: bought: ProtoArray human protein Microarray v5.0 (Life Technologies), individually purified and arrayed
B8: Family with sequence similarity 126, member B (FAM126B) (natural protein, human, UniProt Q8IXS8 1-530, looked up)
chain: MLGTDRCVVEEWLSEFKALPDTQITSYAATLHRKKTLVPALYKVIQDSNNELLEPVCHQLFELYRSSEVRLKRFTLQFLPELMWVYLRLTVSRDRQSNGCIEALLLGIYNLEIADKDGNNKVLSFTIPSLSKPSIYHEPSTIGSMALTEGALCQHDLIRVVYSDLHPQRETFTAQNRFEVLSFLMLCYNSAIVYMPASSYQSLCRMGSRVCVSGFPRQHEKHWKELCGRIVLDPEFMVQLLTGVYYAMYNGQWDLGQEVLDDIIYRAQLELFSQPLLVANAMKNSLPFDAPDSTQEGQKVLKVEVTPTVPRISRTAITTASIRRHRWRREGAEGVNGGEESVNLNDADEGFSSGASLSSQPIGTKPSSSSQRGSLRKVATGRSAKDKETASAIKSSESPRDSVVRKQYVQQPTDLSVDSVELTPMKKHLSLPAGQVVPKINSLSLIRTASASSSKSFDYVNGSQASTSIGVGTEGGTNLAANNANRYSTVSLQEDRLGQAGEGKELLSPGAPLTKQSRSPSFNMQLISQV
notes: human FAM126B; source: bought: ProtoArray human protein Microarray v5.0 (Life Technologies), individually purified and arrayed
B9: Family with sequence similarity 39, member B (FAM39B) (natural protein, human, UniProt Q6VEQ5 1-465, looked up)
chain: MTPVRMQHSLAGQTYAVPLIQPDLRREEAVQQMADALQYLQKVSGDIFSRISQQVEQSRSQVQAIGEKVSLAQAKIEKIKGSKKAIKVFSSAKYPAPERLQEYGSIFTGAQDPGLQRRPRHRIQSKHRPLDERALQEKLKDFPVCVSTKPEPEDDAEEGLGGLPSNISSVSSLLLFNTTENLYKKYVFLDPLAGAVTKTHVMLGAETEEKLFDAPLSISKREQLEQQVPENYFYVPDLGQVPEIDVPSYLPDLPGIANDLMYIADLGPGIAPSAPGTIPELPTFHTEVAEPLKVDLQDGVLTPPPPPPPPPPAPEVLASAPPLPPSTAAPVGQGARQDDSSSSASPSVQGAPREVVDPSGGRATLLESIRQAGGIGKAKLRSMKERKLEKKKQKEQEQVRATSQGGHLMSDLFNKLVMRRKGISGKGPGAGEGPGGAFARVSDSIPPLPPPQQPQAEEDEDDWES
notes: human FAM39B; source: bought: ProtoArray human protein Microarray v5.0 (Life Technologies), individually purified and arrayed

Each binder was assayed against T1, recombinant human soluble endoglin … (assay: peptide or protein array; ProtoArray human protein Microarray v5.0 (over 9000 human proteins arrayed) probed with recombinant sEng in two replicates; detection with anti-endoglin mAb SN6h and HRP secondary antibody; hits with Z-score >=2.0 in both arrays). Conditions: both partners purified.

Binding result, binds:
B1, B2, B3, B4, B5, B6, B7, B8, B9
